US7118902

B1: furin-processed construct I (truncated ADAMTS4 active-site mutant without the spacer and the TSP-1 domain, C-terminal FLAG tag) (protein)
chain: FASLSRFVETLVVADDKMAAFHGAGLKRYLLTVMAAAAKAFKHPSIRNPVSLVVTRLVILGSGEEGPQVGPSAAQTLRSFCAWQRGLNTPEDSDPDHFDTAILFTRQDLCGVSTCDTLGMADVGTVCDPARSCAIVEDDGLQSAFTAAHQLGHVFNMLHDNSKPCISLNGPLSTSRHVMAPVMAHVDPEEPWSPCSARFITDFLDNGYGHCLLDKPEAPLHLPVTFPGKDYDADRQCQLTFGPDSRHCPQLPPPCAALWCSGHLNGHAMCQTKHSPWADGTPCGPAQACMGGRCLHMDQLQDFNIPQAVDYKDDDDK
B2: mature protein of construct G (full-length ADAMTS4 active-site mutant E362Q with FLAG tag) (protein)
chain: FASLSRFVETLVVADDKMAAFHGAGLKRYLLTVMAAAAKAFKHPSIRNPVSLVVTRLVILGSGEEGPQVGPSAAQTLRSFCAWQRGLNTPEDSDPDHFDTAILFTRQDLCGVSTCDTLGMADVGTVCDPARSCAIVEDDGLQSAFTAAHQLGHVFNMLHDNSKPCISLNGPLSTSRHVMAPVMAHVDPEEPWSPCSARFITDFLDNGYGHCLLDKPEAPLHLPVTFPGKDYDADRQCQLTFGPDSRHCPQLPPPCAALWCSGHLNGHAMCQTKHSPWADGTPCGPAQACMGGRCLHMDQLQDFNIPQAGGWGPWGPWGDCSRTCGGGVQFSSRDCTRPVPRNGGKYCEGRRTRFRSCNTEDCPTGSALTFREEQCAAYNHRTDLFKSFPGPMDWVPRYTGVAPQDQCKLTCQARALGYYYVLEPRVVDGTPCSPDSSSVCVQGRCIHAGCDRIIGSKKKFDKCMVCGGDGSGCSKQSGSFRKFRYGYNNVVTIPAGATHILVRQQGNPGHRSIYLALKLPDGSYALNGEYTLMPSPTDVVLPGAVSLRYSGATAASETLSGHGPLAQPLTLQVLVAGNPQDTRLRYSFFVPRPTPSTPRPTPQDWLHRRAQILEILRRRPWAGRKVDYKDDDDK
B3: furin-processed protein of construct B (truncated ADAMTS4, catalytic domain with His tag) (protein)
chain: FASLSRFVETLVVADDKMAAFHGAGLKRYLLTVMAAAAKAFKHPSIRNPVSLVVTRLVILGSGEEGPQVGPSAAQTLRSFCAWQRGLNTPEDSDPDHFDTAILFTRQDLCGVSTCDTLGMADVGTVCDPARSCAIVEDDGLQSAFTAAHELGHVFNMLHDNSKPCISLNGPLSTSRHVMAPVMAHVDPEEPWSPCSARFITDFLDNGYGHCLLDKPEHHHHHH
B4: ADAMTS4(p53), auto-digested isoform of human ADAMTS4 (protein)
chain: FASLSRFVETLVVADDKMAAFHGAGLKRYLLTVMAAAAKAFKHPSIRNPVSLVVTRLVILGSGEEGPQVGPSAAQTLRSFCAWQRGLNTPEDSDPDHFDTAILFTRQDLCGVSTCDTLGMADVGTVCDPARSCAIVEDDGLQSAFTAAHELGHVFNMLHDNSKPCISLNGPLSTSRHVMAPVMAHVDPEEPWSPCSARFITDFLDNGYGHCLLDKPEAPLHLPVTFPGKDYDADRQCQLTFGPDSRHCPQLPPPCAALWCSGHLNGHAMCQTKHSPWADGTPCGPAQACMGGRCLHMDQLQDFNIPQAGGWGPWGPWGDCSRTCGGGVQFSSRDCTRPVPRNGGKYCEGRRTRFRSCNTEDCPTGSALTFREEQCAAYNHRTDLFKSFPGPMDWVPRYTGVAPQDQCKLTCQARALGYYYVLEPRVVDGTPCSPDSSSVCVQGRCIHAGCDRIIGSKKKFDKCMVCGGDGSGCSKQSGSFRK
B5: furin-processed mature protein of construct C (protein)
chain: FASLSRFVETLVVADDKMAAFHGAGLKRYLLTVMAAAAKAFKHPSIRNPVSLVVTRLVILGSGEEGPQVGPSAAQTLRSFCAWQRGLNTPEDSDPDHFDTAILFTRQDLCGVSTCDTLGMADVGTVCDPARSCAIVEDDGLQSAFTAAHELGHVFNMLHDNSKPCISLNGPLSTSRHVMAPVMAHVDPEEPWSPCSARFITDFLDNGYGHCLLDKPEAPLHLPVTFPGKDYDADRQCQLTFGPDSRHCPQLPPPCAALWCSGHLNGHAMCQTKHSPWADGTPCGPAQACMGGRCLHMDQLQDFNIPQAGGWGPWGPWGDCSRTCGGGVQFSSRDCTRPVPRNGGKYCEGRRTRFRSCNTEDCPTGSALTFREEQCAAYNHRTDLFKSFPGPMDWVPRYTGVAPQDQCKLTCQARALGYYYVLEPRVVDGTPCSPDSSSVCVQGRCIHAGCDRIIGSKKKFDKCMVCGGDGSGCSGSAWSHPQFEK
B6: ADAMTS4(p40), auto-digested isoform of human ADAMTS4 (protein)
chain: FASLSRFVETLVVADDKMAAFHGAGLKRYLLTVMAAAAKAFKHPSIRNPVSLVVTRLVILGSGEEGPQVGPSAAQTLRSFCAWQRGLNTPEDSDPDHFDTAILFTRQDLCGVSTCDTLGMADVGTVCDPARSCAIVEDDGLQSAFTAAHELGHVFNMLHDNSKPCISLNGPLSTSRHVMAPVMAHVDPEEPWSPCSARFITDFLDNGYGHCLLDKPEAPLHLPVTFPGKDYDADRQCQLTFGPDSRHCPQLPPPCAALWCSGHLNGHAMCQTKHSPWADGTPCGPAQACMGGRCLHMDQLQDFNIPQAGGWGPWGPWGDCSRTCGGGVQFSSRDCTRPVPRNGGKYCEGRRTRFRSCNTEDCPTGSALT
B7: furin-processed mature protein of construct D (protein)
chain: FASLSRFVETLVVADDKMAAFHGAGLKRYLLTVMAAAAKAFKHPSIRNPVSLVVTRLVILGSGEEGPQVGPSAAQTLRSFCAWQRGLNTPEDSDPDHFDTAILFTRQDLCGVSTCDTLGMADVGTVCDPARSCAIVEDDGLQSAFTAAHELGHVFNMLHDNSKPCISLNGPLSTSRHVMAPVMAHVDPEEPWSPCSARFITDFLDNGYGHCLLDKPEAPLHLPVTFPGKDYDADRQCQLTFGPDSRHCPQLPPPCAALWCSGHLNGHAMCQTKHSPWADGTPCGPAQACMGGRCLHMDQLQDFNIPQAGGWGPWGPWGDCSRTCGGGVQFSSRDCTRPVPRNGGKYCEGRRTRFRSCNTEDCPTGSALTFREEQCAAYNHRTDLFKSFPGPMDWVPRYTGVAPQDQCKLTCQARALGYYYVLEPRVVDGTPCSPDSSSVCVQGRCIHAGCDRIIGSKKKFDKCMVCGGDGSGCS
B8: furin-processed construct H (truncated ADAMTS4 active-site mutant without the spacer domain, C-terminal FLAG tag) (protein)
chain: FASLSRFVETLVVADDKMAAFHGAGLKRYLLTVMAAAAKAFKHPSIRNPVSLVVTRLVILGSGEEGPQVGPSAAQTLRSFCAWQRGLNTPEDSDPDHFDTAILFTRQDLCGVSTCDTLGMADVGTVCDPARSCAIVEDDGLQSAFTAAHQLGHVFNMLHDNSKPCISLNGPLSTSRHVMAPVMAHVDPEEPWSPCSARFITDFLDNGYGHCLLDKPEAPLHLPVTFPGKDYDADRQCQLTFGPDSRHCPQLPPPCAALWCSGHLNGHAMCQTKHSPWADGTPCGPAQACMGGRCLHMDQLQDFNIPQAGGWGPWGPWGDCSRTCGGGVQFSSRDCTRPVPRNGGKYCEGRRTRFRSCNTEDCPVDYKDDDDK

Target: bovine articular cartilage aggrecan, P13608
Sequence (P13608 17-2364): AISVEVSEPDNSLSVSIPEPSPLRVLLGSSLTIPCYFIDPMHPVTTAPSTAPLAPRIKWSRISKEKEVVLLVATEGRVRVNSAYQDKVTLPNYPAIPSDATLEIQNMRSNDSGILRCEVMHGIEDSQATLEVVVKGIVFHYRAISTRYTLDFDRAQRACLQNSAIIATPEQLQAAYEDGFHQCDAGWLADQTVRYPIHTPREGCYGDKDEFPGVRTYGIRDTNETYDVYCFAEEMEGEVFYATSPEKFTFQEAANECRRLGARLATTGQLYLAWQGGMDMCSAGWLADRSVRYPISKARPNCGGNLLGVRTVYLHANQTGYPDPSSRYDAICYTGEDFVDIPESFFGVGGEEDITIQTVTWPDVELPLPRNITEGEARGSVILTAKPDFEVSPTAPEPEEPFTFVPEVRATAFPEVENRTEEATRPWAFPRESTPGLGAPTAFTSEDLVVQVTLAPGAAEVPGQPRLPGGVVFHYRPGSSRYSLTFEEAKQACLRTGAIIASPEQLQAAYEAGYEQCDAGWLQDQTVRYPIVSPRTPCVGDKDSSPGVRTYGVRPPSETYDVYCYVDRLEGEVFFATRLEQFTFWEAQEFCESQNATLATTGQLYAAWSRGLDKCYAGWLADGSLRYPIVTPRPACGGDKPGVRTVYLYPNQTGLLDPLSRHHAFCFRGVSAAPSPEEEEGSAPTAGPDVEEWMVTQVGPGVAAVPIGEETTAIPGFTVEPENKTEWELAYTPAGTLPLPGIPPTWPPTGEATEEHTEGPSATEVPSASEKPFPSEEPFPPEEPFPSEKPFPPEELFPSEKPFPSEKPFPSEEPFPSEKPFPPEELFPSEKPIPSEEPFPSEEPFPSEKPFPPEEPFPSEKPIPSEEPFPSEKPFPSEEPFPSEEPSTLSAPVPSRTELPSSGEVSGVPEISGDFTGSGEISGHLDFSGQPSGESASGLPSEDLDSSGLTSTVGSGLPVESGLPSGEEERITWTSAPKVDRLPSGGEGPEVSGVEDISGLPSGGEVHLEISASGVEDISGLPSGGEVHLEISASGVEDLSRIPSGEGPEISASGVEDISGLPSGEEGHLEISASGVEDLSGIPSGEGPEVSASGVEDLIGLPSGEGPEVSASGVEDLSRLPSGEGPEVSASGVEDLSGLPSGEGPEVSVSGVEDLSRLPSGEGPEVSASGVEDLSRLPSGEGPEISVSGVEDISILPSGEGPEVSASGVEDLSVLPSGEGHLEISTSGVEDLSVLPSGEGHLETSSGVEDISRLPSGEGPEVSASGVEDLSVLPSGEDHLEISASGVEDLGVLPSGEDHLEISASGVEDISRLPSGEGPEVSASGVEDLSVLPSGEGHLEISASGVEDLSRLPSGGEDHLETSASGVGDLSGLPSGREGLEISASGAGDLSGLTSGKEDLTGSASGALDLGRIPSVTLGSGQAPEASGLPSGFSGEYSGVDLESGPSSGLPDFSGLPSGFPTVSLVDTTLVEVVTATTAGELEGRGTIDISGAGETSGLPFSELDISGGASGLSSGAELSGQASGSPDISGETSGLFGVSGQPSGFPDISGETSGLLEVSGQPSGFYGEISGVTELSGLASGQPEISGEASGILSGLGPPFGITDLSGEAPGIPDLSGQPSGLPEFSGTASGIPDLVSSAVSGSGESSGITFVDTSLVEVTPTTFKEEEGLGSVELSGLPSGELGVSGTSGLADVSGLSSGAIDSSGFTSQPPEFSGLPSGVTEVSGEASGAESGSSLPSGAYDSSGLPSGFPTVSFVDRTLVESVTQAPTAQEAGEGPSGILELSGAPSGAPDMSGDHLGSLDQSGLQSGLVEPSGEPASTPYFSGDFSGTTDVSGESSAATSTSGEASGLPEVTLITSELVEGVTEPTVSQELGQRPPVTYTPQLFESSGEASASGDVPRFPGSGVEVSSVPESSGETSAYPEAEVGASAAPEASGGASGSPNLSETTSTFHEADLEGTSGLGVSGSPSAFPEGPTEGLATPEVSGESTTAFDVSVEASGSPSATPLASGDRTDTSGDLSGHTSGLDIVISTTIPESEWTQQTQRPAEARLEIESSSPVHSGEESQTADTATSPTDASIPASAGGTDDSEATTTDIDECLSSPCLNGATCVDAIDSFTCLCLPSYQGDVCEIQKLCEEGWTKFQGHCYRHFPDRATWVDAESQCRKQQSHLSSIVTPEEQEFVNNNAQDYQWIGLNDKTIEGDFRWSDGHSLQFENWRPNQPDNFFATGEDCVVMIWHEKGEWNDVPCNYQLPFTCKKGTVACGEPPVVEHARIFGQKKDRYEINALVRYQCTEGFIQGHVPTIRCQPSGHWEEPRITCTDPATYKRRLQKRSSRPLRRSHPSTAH

Row | Protein | aggrecanase activity | further results
1 | B1 | Furin-processed construct H (SEQ ID NO:51) and construct I (SEQ ID NO:52) lack aggrecanase activity | –
2 | B2 | The E362Q mutation abolished the aggrecanase activity of the mature protein (SEQ ID NO:50) of construct G | –
3 | B3 | – | enzymatic (aggrecanase) activity: The furin-processed protein from this construct is enzymatically inactive (SEQ ID NO:46)
4 | B4 | – | aggrecanase activity (Western blot with MAb BC-3 for the 374ARGXX neoepitope): both isoforms have aggrecanase activity
5 | B5 | The furin-processed mature proteins of construct C and D (SEQ ID NOS:47 and 48, respectively) have aggrecanase activity | –
6 | B6 | – | aggrecanase activity (Western blot with MAb BC-3 for the 374ARGXX neoepitope): both isoforms have aggrecanase activity
7 | B7 | The furin-processed mature proteins of construct C and D (SEQ ID NOS:47 and 48, respectively) have aggrecanase activity | –
8 | B8 | Furin-processed construct H (SEQ ID NO:51) and construct I (SEQ ID NO:52) lack aggrecanase activity | –
